Experiment: soluble fraction after stress (log2 fold change); higher = more stays soluble; pooled small domains, quantitative proteomics
Conditions: stress: 50 degC
Procedure, shortened: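 The measure of aggregation propensity here is the base-two logarithm of the fold change in the soluble amount of each protein after stress. A higher value means more of that protein stays in solution. Stress was applied at 50°C to pooled libraries of small protein domains, read out by high-throughput quantitative proteomics.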

| Sequence | soluble fraction (log2) |
| --- | --- |
| HMRKDWTPGAFVEAFVNDTPATRSTILAKAVSAGLSRWAADNLLRTADNDGLMVRQGSGKRNEPFTYRRGP | -0.196 |
| HMSDTSAIEKIIDEVLSDESSQKAINDIKNGNEKVYGFLVGQVMKKSQGKANPGLVQKMLREKIAK | 0.212 |
| HMETWKLYKRAYKKYYARYMKGNMSEADFKAWATQAAADRDAAIEQITPEIDAALKAQIIEQLREKLNR | -0.856 |
| HMKLISVAVMRASDAAEIAGGTDSKTLMYRAGLGLFQSWDWHGKIDIVTGSGNNAGDGYVLALLL | -0.0519 |
| HMNRNEFMERLEYLLSDIPQEEKADAIAYYRDYLEEAGDDAGKAIQDFGSPERIAAMIRSELAG | -0.0703 |
| HMAMTNEEREALISEIKQTVNNSIDLKKDISDTEIKEAITQAVFERSEKSYLSIAEKQDIITAVFNSMR | 0.0202 |
| HMKPVTNHTVKFYVDDVLWKTVTVKHGGNVRLADLPMSDGKTFVGWSESVVNVTKDLTVFALFS | -0.562 |
| HMDENDPYEILEIDRLASDDQVKAKYRALIRENHPDVLMAKGVPQEFIDLANRKMAVINAAYDRIEKEREF | -0.0184 |
| HMLMDVRVPDIIGVEINQAKEILTASSLLIGKITYVSLPEIEKDLVIETSVLAGRRVSAGTVIDITVNKE | -0.76 |
| HMSGSGYAYVDKYGYSHVVKDYDTAKNYASDGNVYNYSGSHKGGYAYDADNYRVPLDLPGSKPYG | -0.0115 |
| HMTKYKEIVDQLRTNIYEGVFPALSKLPEQTALAKRFQTSRMTIQKALNQLKQEGLISTKRGHGTYVNSAT | -0.298 |
| HMQDFEEILKNAKIEDFKHTQTGEDLKVLKIEDKIEDFKGFNAYLVKNQIAYYSKFARGFVVKNIEKLQGV | 0.0429 |
| HMSRLQDAELQAQIDKMAGAMQLRDIPVYVQDIPTINGLAAPDGRVFITQGFIDKYKLGEVSAGEIASVI | 0.36 |
| HMTAEASELRERIRAAMATLPPAQQRVIELAYFEGLTQREIAALLNEPLGTIKTRMRLGMRKLKDVL | -0.747 |
| HMISRDPYDAGAIKRHFSASGLFSSKELAHYLGKSVSTAKNVLSDLQQQGIVEMVGQGPATKYRFI | 0.343 |
| HMSHQIIIVAVELDPSTERIVYYLSKNGISINVLFFKVFQHGDEQFLSRVWLIDPSETQTNAALA | -0.466 |
| HMPLTEMAVRKHLSAELAQKGYTIDPRALEILLQRTNTNLTAIANELPKLLLVAEDKQITVNEVSAM | -0.164 |
| HMTGDIIKQERKKKNLTQIELAKKVGISRNALINYEAGTRIPPISVQLKLADVLGIDILDLK | -0.299 |
| HMDLDIGSVLQASRGEKKISLRQLAERTGLTASMLSQIERNLVNPSINTLKVIAAALEIPMYKFFMG | -0.835 |
| HMGKRGKEMQTAVLAILRASDRPYSAYELLESLKDIYPKIAPPTVYRALAALTQRGQIRRLESLNAFI | -0.325 |
| HMAKRDEIEAELPRFVATITQELAASRDVLSMIEHYKQNSGPVFSAELDVLTADMRSGSYEAALTRFEARF | 0.0338 |
| HMKRTMVEAAMVAKLFNLTVRRIQQLTQDGVLTTELVDKKRRYDLLLTVQKYIAYLQEKVAK | -3.24 |
| HMSKPVYILINKPKGFLASSTDKKVKKSVNDLINISNLNKIYPFDNMGRTSSGLLLLSNDLYFKKHFKDKI | 0.341 |
| HMNFHLEHHIAELLYRSIRGELSDFERQELNQWRSDSPMHETLFMRLQDDEYIDEELGVFIK | -1.99 |
| HMGQVSEAGELEVAADRVIAANPEAVTKYKSGNENILQFLVGQMMKETKGAANPQVAAEILRKKIV | 0.254 |

| Sequence | soluble fraction (log2) |
| --- | --- |
| HMTEDTPIIVERVVADIDENVVAIVRKFKDAFKSITAQREIKKKLRSILWVNYQIKDQEVFDKAYQYIEMY | 0.0204 |
| HMAREQISVSQMVRDVRDGQVKNIEVLGQELRLSYADGSQKVTRKEEGQQALEILFASDIDLAALDLEVQ | 0.0848 |
| HMKKYLIIDAANEKIIFKIIDNNKTYTNDYENSRKNFDRFAVLLFNFLNKNMISFDTIDKAL | -0.0864 |
| HMADKGTITNQQEKILKALILFPEGASIEEIQKAADLGIDKRQFQRRLNTLIESGQINRTGKSRGTKYHTI | 0.0555 |
| HMVAPPILNITTHIFAEEADLRMVMINGVTRREGDSLGENHRLLEITERGLILIFHNKQYTLDV | -3.68 |
| HMGELTNALATLSERERDVARLVAQGLDNRQIAAQLFLSEGTVRNRISDILDKLALTNRTQLAIAWLHAE | -0.588 |
| HMEFENIEQRKQYWSDLYRELKAGQDAYAKELKKGTEGYTQDELDILKEFTDEAKKQMEAAGVEATDEFAS | -0.187 |
| HMADVSPEAQHKMVEAFAQFGVTKEHIEQRIQRRLDAIQPAQMVTLKRIFASLRDGMSTPAEWFE | -0.227 |
| HMKGTVLAPGIILNADDQRFTYLQEDVASVAKDGAAIVLKQGDEVDFIADGQTAKQIYLTKT | 0.0649 |
| HMEIPTEEILKQKLYYSISEVASWFKVNTSLLRYWENEFDILQPRKTRKGDRLFRVEDIKNLQLIYLL | 0.107 |
| HMHNPSYDMSKDVDILVMKFRDYNNLTDDEARFLLDKAKDAYYNTGKEILSDNEYDTLEKSLGQE | 0.178 |
| HMNDTLQEYFEALERLKSNNPINVPKNTKINNDSVALEAGRKRGSIKKSREIFAELIEAINNAS | -0.0859 |
| HMNEQVAVVSGSQVNVRSGPGTTSAVVGQVSKGDNLPVLNQSGDWYQIKLPGGNAGWVAGWLVSLRPTT | -0.0873 |
| HMNPLPALLRYFRQKAGLTQQDVAAALSISRSGYANYEEGRNIPNIEQAIKLSELLNHDFLYAYTLSS | -1.99 |
| HMAPRSSAVYFYLSQVALKKNQPRKAEAMARRGLTVSQDANRRRALWQLILRSGQAQNNTRVIREAQQAL | 0.19 |
| HMGKKGPELSENEKSIFSILSKSGSMDLTTLKEASGLSNKQWDKGIKGLGKHGLTKVIKTEDALLVEVV | 0.0505 |
| HMHIMINPDQLSPEQIQSIRTWAEEGLDLNAIQKRLHEDLNIKLTFMDTRFLLQDLDIRIRQPEPEPEAEQ | -0.00841 |
| HMNNLTEEAINHLVLEVKNVLLTDALFLGKATDSQLMLRIKETIDQRNGQYNIGMNDRERIARRVFARLR | -0.189 |
| HMETLEDHRKKTRQQLFDALSHLLQTSTFESLTMAKIAEEAGVGRTAVYNHFQDKEALLLAFITYETGQ | -1.05 |
| HMKEAITVIGGKNNITFDASAQAEIGIYSMDGVQIQKKTISDNERIDLPAGMYVVTVKTGQANVSKVVVV | 0.00681 |
| HMVEPIEESISQLSLLLQSLYEDGKSEVSFEELIRSDRSRVSLFLALLFMAQRGNVYLEQEELFGDLRVKN | 0.0123 |
| HMKTILEKDQRLAKYISYLIKRKRLSPEQVIEHLKTDDHGYEKYPKSINTIYAAIDKGLIPSVTRQDM | -0.0163 |
| HMSYEDLIQAVSGHFGIEIRALLSEDRKKENMIPRQVAMYLLKNKLHYTYERIGNIFSGRNHTAVMYSV | -0.193 |
| HMRTLKDSTEYLIRSMLLRGEMKVGEIYSANALAKELNISNSPVREAMMSLVDRGLLENVRNRGFRVV | -1.44 |
| HMGLPLETVVTHATKLEIVRDGRVSGSIGLSAGVKVDVIALEGDNLQVRYRSLSGRVPVAHTGLAALA | 0.105 |

| Sequence | soluble fraction (log2) |
| --- | --- |
| HMIDQSVVVQYLSKLTNTPYLKTREITMGEPYMQFERGEIKFQEYVEDIRALLPGGDRIDADRLRDIWMNS | -1.22 |
| HMDEVHYLADKERGTTWEEILIHADRDIKFLSLSATINNKNEFLEWLVSLRGTTSLIHSSTRPIPLEI | 0.218 |
| HMDGPGDRLLIAIQENSMTQKKFAQLIGMSPNGLNSIIKGKKRLSRVLAIATERLTGVRADWILQNEQPK | 0.0136 |
| HMPTPRVPMSKQRQILQLLQDGHLSTREIAAALHISKTSVGDIAKAARLAGLDWEAASKLSDEELSARIYK | -0.00175 |
| HMDPERVVGQTGIVHLRIPARQHNTGKVMIEVQGSLREFDAVSEAEEIPTGTPILIVGRTEEGVFIAQPF | -0.0467 |
| HMDDILAYEIEDKEDLENLSLGKSIGINLNKLIKPTLNSFDNSLLFLSKKGNIISYGKLNGDLFKPKKVL | 0.0598 |
| HMDINMELGKNIRRLRKLNNLTQQSLANQMNRSKTLIALWEKGERDPSSIDLKRLSEIFNVRADDIIG | -0.689 |
| HMNTVSVGNLGLSVRAVNALKQAGIDTYDKLQELSWEELLLIPKLGQVTAAEIYRFITSYKKG | -0.552 |
| HMNGVPDMSPVPEGARNSTLHAWAFGRLKNHPDNETGIREDLFRRGHASGLQDAELDQIWKSIKRTL | 0.0847 |
| HMDSLARKTVNGAEFYIYPVESAEGFYSLRRKFGVSQEEVIKYNPSAQNGLKSGQVLLIPVT | -0.176 |
| HMVGADTISDLISQRGRMIGDKPITNAVIKSGSEFSTINALSKAIASGDARTNDVEGMKPVFR | -0.0638 |
| HMEDADERRALEVLNQLLDLPEREQEAALAALSLPPALARRVRSLLSVQTRAADLFDTAPSP | -0.0946 |
| HMSSIHQDAKQQLHEYIRTYIQPLMRAGKQVTVWDIIGHVTIRKPKLVQKIGTQQLINMVQDLLE | -0.213 |
| HMSELTKEIGKRIHDFRKSRGLNQEELARLIYKSKATLSKYEKGEIAIDLDTLKQLALALHVRMEQLLPPT | -0.0472 |
| HMEKGNEEALEQAREAILAVQSGEKYVDLDPANAAIRRKQHALAQASDLVSQSYGKDPNRYVRIFR | 0.34 |
| HMKISQSRKAGKLVLESELKRGGVSLDQYRGGRMSRILELIGVKSLNELLTDLGTGKKTGALVAERFFSGL | -0.444 |
| HMSNTPHSREVLLEMDAVRRLLAVGEEKGEVDRADLQGAFEEAELGRGDLDGVLSILREYDVPLAR | 0.0709 |
| HMSAPEGWMNRGDLRDNFRIQYPVTDRIIASYRESHPEWFGTYLSKTSKSLEYFHPDLVAKVREAAN | -0.101 |
| HMQMRKENKILVTDIGEIDEVKVIFDDDNKPYLYSYNGEDEFYRPDETYKFFDNKEQAEEYVREN | 0.0625 |
| HMLTEEVEISLMDMTKPTQPATIKTTATIQKGATTVMPKQIKMPEGYEFYGNYKMDQPFELTMTFVVKKI | 0.115 |
| HMNTKLKPLYLLDIFREMTDERHRMTVPELLEELQRRGITAERKGIYRDIDALIQYGADIKHTGTGYYLAR | -0.561 |
| HMIYWGTMVDKIYEVLSLAGKPLSLMEIYQQVKVFFPNSTKSSIEASMRLDARHRFKYDVEGHVYSLVD | -1.3 |
| HMKPFSLESYKAFVVKRLGLFPETSSAQMHDWLKEEYPDFPLITPRTVYNFVMKIRQDYGIAKV | -3.66 |
| HMDTNEPFAQLQLRFTDPIQYDYEVIRPVVLFSQSVTDRSDETEMPRTTVREKARQFVTEGMLGLVDK | -0.00748 |
| HMWKSEAGKKIIESLAQKYNKSNAQIILRWHIQMGYIVIPGARSENHIKENINIFDFKLTNEEINNILKLN | -0.345 |
